Our source for the fraction of Ca2+/CaM bound longer than 60 s and stoichiometry N values is publication doi:10.1101/2023.01.10.523378.

Values joined by “and” are separate entries in the source; they are usually repeats but may differ in a detail not shown here. Identical values can stand only once.

The target of experiment [1] is rat CaMKIIα holoenzyme (apo, nonphosphorylated) (rat) (UniProt P11275). The experiment can be described thus: high-speed atomic force microscopy.
The target in experiment [2] is rat CaMKIIα holoenzyme phosphorylated at Thr286 (rat) (UniProt P11275). The experiment can be described thus: high-speed atomic force microscopy.

On to “Ca2+/calmodulin (from UniProt P0DP23 1-149) (natural protein)”, for which the figures for the fraction of Ca2+/CaM bound longer than 60 s in experiment [1] and in experiment [2] were 41.1% and 77.3%, respectively.

For “rat CaMKIIα holoenzyme (apo, nonphosphorylated) (from UniProt P11275 1-478)”, in experiment [1], the stoichiometry N – broadly, a count of units in the complex or per binding partner – was 12 and 14.
